Reference: PMC11579453 (Nature Communications, 2024)
Where two headings read alike, the source gives them in different places.

What was measured:
Aβ42 amyloid fibrils = Aβ42 amyloid fibrils (UniProt P05067); assay: microfluidic diffusional sizing; Alexa647-labelled BRICHOS held constant (three concentrations a curve set), Aβ42 fibrils varied between 0.01 and 24 µM (monomer equivalents), incubated 48 h; global fit of Kd and stoichiometry
[1] = target: WT α-Synuclein amyloid fibrils (human) (UniProt P37840); assay: microfluidic diffusional sizing; Alexa647-labelled BRICHOS held constant (three concentrations a curve set), α-Syn fibrils varied between 0.01 and 24 µM (monomer equivalents), equilibrium within 2 hours; global fit of Kd and stoichiometry
[2] = target: WT α-Synuclein amyloid fibrils (human) (UniProt P37840); assay: single-molecule TIRF microscopy (single particle tracking); α-Syn fibrils immobilised on a glass coverslip, blocked with BSA; Atto647-labelled Var II added at 1-100 nM in PBS
[3] = target: WT α-Synuclein amyloid fibrils (human) (UniProt P37840); assay: microfluidic diffusional sizing; Alexa647-labelled BRICHOS held constant (three concentrations a curve set), α-Syn fibrils varied between 0.01 and 24 µM (monomer equivalents), equilibrium within 2 hours; global fit of Kd and stoichiometry; remark: listed apart in the source
[4] = target: WT α-Synuclein amyloid fibrils (human) (UniProt P37840); assay: NMR signal intensity ([15N,1H]-HMQC), competition; 100 µM 15N-labelled α-Syn monomer with 540 µM unlabelled α-Syn fibrils, 2 h at 4 °C, then unlabelled Var II added at 100, 300 or 500 µM, followed for ~120 min; 25 mM phosphate, 25 mM NaCl, pH ~6.8
[5] = target: T1, proSP-C BRICHOS (K114I, R139Q) (UniProt P11686 90-197, K114I | R139Q, Alexa647 label in the microfluidic diffusional sizing (site not stated); Atto647 succinimidyl ester (amine labelling) in the single-molecule microscopy; 15N labelled in the NMR binding experiments …); assay: NMR titration; 15N-labelled Var II, [15N,1H]-TROSY, peptide added at 100 µM to 2 mM; 25 mM phosphate, 25 mM NaCl, pH ~6.8, 2.5% DMSO, 303 K; conditions: both partners purified
T1 construct: BRICHOS domain of proSP-C, residues 90-197, with two salt-bridge mutations of the trimer interface; Monomer by light scattering, diffusional sizing and NMR structure; also called variant II; Var II; source: E. coli BL21(DE3*) pLysS, purified (Ni-NTA, TEV digestion, Ni chromatography, SEC); not shown: His tag, N-terminal, cleaved; NT* solubility tag, N-terminal, cleaved
T1 sequence (looked up): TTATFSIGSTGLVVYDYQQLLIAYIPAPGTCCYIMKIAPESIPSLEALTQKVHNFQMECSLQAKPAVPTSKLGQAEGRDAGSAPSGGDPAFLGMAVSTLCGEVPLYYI

[6] = target: the molecule itself; assay: multi-angle light scattering; proSP-C BRICHOS alone in solution; molecular mass read out; conditions not stated
[7] = scale: monomer units in the fibril per BRICHOS molecule

WT proSP-C BRICHOS domain (residues 90-197) (from UniProt P11686 90-197) (domain or fragment)
Kd (Aβ42 amyloid fibrils): 192 nM
stoichiometry N (Aβ42 amyloid fibrils; scale: Aβ42 monomer units on the fibril per BRICHOS molecule): 8
Kd [1]: 696 nM
stoichiometry N ([1]; scale: monomer units of α-Syn per BRICHOS molecule): 38

proSP-C BRICHOS (K114I, R139Q) (from UniProt P11686 90-197) (domain or fragment)
residence time on the fibrils [2]: 350 to 400 ms
residence time on the fibrils (three exemplary molecules) [2]: 100 s
Kd (Aβ42 amyloid fibrils): 21.4 nM
stoichiometry N (Aβ42 amyloid fibrils; [7]): 6
Kd [1]: 450 nM
stoichiometry N ([1]; scale: monomer units in the fibrils per BRICHOS molecule): 7
Kd [3]: 450000 nM
percent of fibril-bound monomeric α-Syn released (100 µM Var II) [4]: 25%
percent of fibril-bound monomeric α-Syn released (300 µM Var II) [4]: 50%
percent of fibril-bound monomeric α-Syn released (500 µM Var II) [4]: 65%

proSP-C BRICHOS (E135R, R139E) (from UniProt P11686 90-197) (domain or fragment)
Kd [1]: 1260 nM
stoichiometry N [1, 7]: 18
Kd [3]: 1.26 nM

B1: client peptide B (peptide)
peptide: VLEMGSGSGSKKVVVVVKK
notes: model client peptide, designed to be able to form a beta hairpin; said to represent part of the transmembrane helical segment of native proSP-C; Dissolved in DMSO at 20 mM stock; also called substrate peptide; source: synthetic peptide; bought: GL Biochem, Shanghai
Kd [5]: ~800000 nM

B2: WT proSP-C BRICHOS domain (residues 90-197) (domain or fragment, UniProt P11686 90-197, looked up)
chain: TTATFSIGSTGLVVYDYQQLLIAYKPAPGTCCYIMKIAPESIPSLEALTRKVHNFQMECSLQAKPAVPTSKLGQAEGRDAGSAPSGGDPAFLGMAVSTLCGEVPLYYI
modifications: Alexa647 label in the microfluidic diffusional sizing (site not stated); 15N,13C labelled for NMR
notes: BRICHOS domain of the lung surfactant protein C precursor (proSP-C), residues 90-197; Homotrimer by light scattering, diffusional sizing and NMR structure; Disulfide bridges 120-148 and 121-189 were restrained in the structure calculation; BMRB entries 34811 and 34813 are printed without saying which is the trimer; also called WT BRICHOS; trimeric proSP-C BRICHOS; not shown: His tag, N-terminal, …
stoichiometry N [6]: 3
